In patent US8691960B2, “Oxidoreductases for enantioselective reactions” (Duke University, priority 2012, dated 2014):
Read-outs that look alike come from different tables or passages of the source.

Columns and labels:
[1] = Enantiospecific LC-MS/MS quantification of (R)- and (S)-2-hydroxyadipate product; type: biochemical; settings: for Enantiomeric Excess: Table 3, (R)-2-hydroxyadipate product
Protocol: Quantitative, enantiospecific LC-MS/MS was performed based on the procedure described for 2-hydroxyglutarate. Jin et al., PLoS one 6, e16812: 1-8 (2011); Struys, et al., Clin. Chem. 50: 1391-1395 (2004). To 20 μL of reaction mix, 2 μL of 130 μg/mL of a racemic mixture of [3,3,4,4-^2H4]-2-hydroxyglutarate (internal standard) in water was added and the mixture dried by vacuum centrifuge (50° C., 15 min). The dry residue was treated with 50 mg/mL freshly prepared diacetyl-L-tartaric anhydride (Sigma) in dichloromethane/glacial acetic acid (4:1 by volume) and heated (75° C., 30 min). After drying (50° C., 15 min) the residue was dissolved in 100 μL of LC mobile phase A (see below) for analysis. An Agilent 1200 series HPLC (Santa Clara, Calif.) was used for liquid chromatography (LC) and a Sciex/Applied Biosystems API 3200 QTrap (Carlsbad, Calif.) was used for triple quadrupole mass spectrometry (MS/MS). Mobile phase A: water, 3% acetonitrile, 280 μL ammonium hydroxide (^˜25%), pH adjusted to 3.6 with formic acid (^˜98%). Mobile phase B: methanol. Analytical column: Kinetex C-18, 150×4.6 mm, 2.6 μm, and SafeGuard C-18 4×3 mm guard-column from Phenomenex (Torrance, Calif.). Column temperature: 45° C. Elution gradient at 1 mL/min flow rate: 0-1 min 0% B, 1-2 min 0-100% B, 2-3.5 min 100% B, 3.5-4 min 100-0% B, 4-10 min 0% B. Injection volume: 10 μL. Q1/Q3 (m/z) transitions were monitored: 377/161, 2-hydroxyadipate (2HA) and 367/151, [3,3,4,4-^2H4]-2-hydroxyglutarate (2HG-d4). To calibrate, 0, 0.16, 0.54, 1.8, 6, and 20 μg/mL 2-hydroxyadipate (Sigma), synthesized as described above, was analyzed in reaction buffer. (R)- and (S)-enantiomers were discriminated based on time of elution from the HPLC column, using the relative elution time for (R)-2-hydroxyglutarate compared to the racemic mixture of 2-hydroxyglutarate described previously to identify the (R)-2-hydroxyadipate enantiomer. Jin et al., PLoS one 6, e16812: 1-8 (2011). Standards were analyzed alongside experimental samples. Accuracy acceptance criteria were 85% for all but the lowest level (0.16 μg/mL, 80%).

[2] = literature; cited from earlier work
[3] = NADH oxidation with 2-oxoadipate plus CO2 added as NaHCO3 (reductive carboxylation); type: biochemical
Protocol: (§1) NADH, 2-oxoadipate, 2-oxoglutarate, 2-heptandioate, and MgCl2 were from Sigma. Standard reaction mixes contained 15 mM 2-oxoadipate, 100 μM NADH, and a reaction buffer with final concentrations of 20 mM MgCl2 and 500 mM HEPES, pH 7.3. NADH oxidation was monitored by the decrease in fluorescence with excitation of 340 nm and emission of 450 nm on a PolarSTAR Optima plate reader (BMG Labtech). Fluorescence monitored reactions were carried out in 10-μL volumes in a 384-well black microplate (Greiner 788076) covered with clear optical film. The levels of fluorescence were converted to NADH concentrations based on standards of NADH in reaction buffer containing BSA. Reactions with high amounts of NADH were monitored by the UV absorbance of NADH at 340 nm in 40-μL reaction volumes in clear 96-well plates.
(§2) Reaction rates are NADH oxidation per unit time per unit of purified enzyme or crude lysate and 1 Unit (U) is 1 μmolNADH min^−1 mgenzyme^−1. Rates are initial rates calculated by least squares linear regression on the first 10 minutes of the reaction. For KM determination, concentrations of substrate/cofactors at least 5×-higher than the KM were used, while the species of interest was varied in concentration; substrate/cofactor concentrations: 500 μM NADH; 15 mM 2-oxoadipate; 20 mM MgCl2. Reported α-hydroxyadipate (2-hydroxy adpic acid) Vmax values were obtained from 2-oxoadipate KM determination experiments. Michaelis-Menten KM and Vmax parameters were estimated by fitting data to a curve using nonlinear regression in GraphPad Prism 5.0 (GraphPad Software, La Jolla, Calif.).

[4] = NADH oxidation rate of purified HIDH enzymes with 2-oxoadipate (fluorescence / UV 340 nm); type: biochemical; settings: ScHIDH, 15 mM 2-oxoadipate, 100 μM NADH, 0.4 μg purified enzyme
Protocol: as §1, §2
(§3) Assays were performed with 40 ng/μL enzyme, 15 mM 2-oxoadipate, 100 μM NADH, 20 mM MgCl2 and 100 mM HEPES, pH 7.3 in 10 or 20 μL volumes in 384-well black microplates. NADH concentration was monitored by the decrease in fluorescence (excitation wavelength: 340 nm; emission wavelength: 450 nm) on a fluorescent plate reader. The fluorescence intensities were converted to NADH concentrations based on NADH standards. Reactions with high amounts of NADH (>300 μM) were monitored by the UV absorbance of NADH at 340 nm in a 40 μL reaction volume in a clear 96-well plate on the same plate reader. Reactions with ScHIDH were carried out at 25° C. and reactions with TtHIDH were carried out at 45° C. Reported rates are initial rates from the first 10 minutes of reaction. For KM determination, concentrations of substrate at least 5×-higher than the KM were used (for NADH, 500 μM; for 2-oxoadipate, 15 mM) while the substrate of interest was varied in concentration. KM and Vmax were estimated by fitting data to equation (1) using nonlinear regression, where x is substrate concentration and y is the rate. y=Vmax·x/KM+x (1) Rate data for ScHIDH-R143C, -R143H, and -R143K are summarized in Table 3.

[5] = ScHIDH, literature; read-out: KM,HCO3, previous observation; cited from earlier work
[6] = literature (Lin et al. 2007); cited from earlier work
[7] = 2-hydroxyadipate dehydrogenase activity of crude bacterial lysates expressing ScHIDH mutants; type: biochemical; settings: for reaction rate relative to ScHIDH-R143H: crude lysates, 15 mM 2-oxoadipate
Protocol: To obtain crude lysates, 0.5 mL of starter cultures generated as described above were added to 4.5 mL LB-Amp, shaken for 2 h, and shaken for an additional 2 h after induction with 1 mM IPTG. Pellets from these cultures were harvested by centrifugation at 4500×g at 4° C. These pellets were resuspended into 500 μL of Buffer A (0.2% Triton-X 100, 1 mM PMSF, 0.5 mM EDTA, 10 mM Tris, pH 7.5) on ice and sonicated for 6-cycles of 15 seconds each on ice on a Sonifer 250 (Branson). This was then spun down at 13,000×g at 4° C. for 15 min and the cleared lysates were normalized with additional lysis buffer to 700 ng/4 and stored at −80° C. as aliquots. Protein concentrations were determined using the BioRad Protein Assay reagent according to the manufacturer's instructions.
as §1, §2

[8] = Kinetic characterization of ScHIDH mutants: KM NADH; type: biochemical; settings: Table 3; 15 mM 2-oxoadipate, 20 mM MgCl2, pH 7.3, 25° C.
Protocol: as §2, §3

[9] = Kinetic characterization of ScHIDH mutants: KM 2-oxoadipate and Vmax; type: biochemical; settings: for Km / Vmax: Table 3; for Km: 40 ng/μL enzyme, 500 μM NADH, 20 mM MgCl2, pH 7.3, 25° C.; for Vmax: from 2-oxoadipate KM experiments
Protocol: as §2, §3

B1: TtHIDH-WT: wild type Thermus thermophilus homoisocitrate dehydrogenase (protein, listed as Thermus thermophilus)
chain: MAYRICLIEGDGIGHEVIPAARRVLEATGLPLEFVEAEAGWETFERRGTSVPEETVEKILSCHATLFGAATSPTRKVPGFFGAIRYLRRRLDLYANVRPAKSRPVPGSRPGVDLVIVRENTEGLYVEQERRYLDVAIADAVISKKASERIGRAALRIAEGRPRKTLHIAHKANVLPLTQGLFLDTVKEVAKDFPLVNVQDIIVDNCAMQLVMRPERFDVIVTTNLLGDILSDLAAGLVGGLGLAPSGNIGDTTAVFEPVHGSAPDIAGKGIANPTAAILSAAMMLDYLGEKEAAKRVEKAVDLVLERGPRTPDLGGDATTEAFTEAVVEALKSL
increase of (R)-2-hydroxyadipate concentration after 2 h ([1]; TtHIDH, 100 μM NADH, 15 mM 2-oxoadipate, 45° C., 2 h): not observed
efficiency for 2-oxoglutarate relative to 2-oxoadipate [2]: 20 times
rate of NADH consumption with NaHCO3 added ([3]; TtHIDH, 2-oxoadipate and NADH, CO2 added as NaHCO3): 0.14±0.022 U

B2: ScHIDH-WT: wild type Saccharomyces cerevisiae homoisocitrate dehydrogenase (encoded by LYS12) (protein, listed as Saccharomyces cerevisiae)
chain: MFRSVATRLSACRGLASNAARKSLTIGLIPGDGIGKEVIPAGKQVLENLNSKHGLSFNFIDLYAGFQTFQETGKALPDETVKVLKEQCQGALFGAVQSPTTKVEGYSSPIVALRREMGLFANVRPVKSVEGEKGKPIDMVIVRENTEDLYIKIEKTYIDKATGTRVADATKRISEIATRRIATIALDIALKRLQTRGQATLTVTHKSNVLSQSDGLFREICKEVYESNKDKYGQIKYNEQIVDSMVYRLFREPQCFDVIVAPNLYGDILSDGAAALVGSLGVVPSANVGPEIVIGEPCHGSAPDIAGKGIANPIATIRSTALMLEFLGHNEAAQDIYKAVDANLREGSIKTPDLGGKASTQQVVDDVLSRL
concentration of (R)-2-hydroxyadipate after 10 h ([1]; ScHIDH, initially 2 mM NADH and 2 mM 2-oxoadipate, 10 h): no 2-hydroxyadipate accumulation was observed
rate of NADH oxidation in the presence of 2-oxoadipate [4]: < 0.001 U
Km [5]: 16.3 mM
rate of NADH oxidation when CO2 was added as HCO3 ([3]; ScHIDH, 2-oxoadipate, NADH): 0.061±0.0090 U
Km ([3]; ScHIDH, read-out: KM,HCO3): 10 ± 3.7 mM
rate for homoisocitrate relative to isocitrate [6]: 216 fold

B3: ScHIDH-R143K: Saccharomyces cerevisiae homoisocitrate dehydrogenase R143K mutant (protein)
chain: MFRSVATRLSACRGLASNAARKSLTIGLIPGDGIGKEVIPAGKQVLENLNSKHGLSFNFIDLYAGFQTFQETGKALPDETVKVLKEQCQGALFGAVQSPTTKVEGYSSPIVALRREMGLFANVRPVKSVEGEKGKPIDMVIVKENTEDLYIKIEKTYIDKATGTRVADATKRISEIATRRIATIALDIALKRLQTRGQATLTVTHKSNVLSQSDGLFREICKEVYESNKDKYGQIKYNEQIVDSMVYRLFREPQCFDVIVAPNLYGDILSDGAAALVGSLGVVPSANVGPEIVIGEPCHGSAPDIAGKGIANPIATIRSTALMLEFLGHNEAAQDIYKAVDANLREGSIKTPDLGGKASTQQVVDDVLSRL
modifications: ScHIDH R143K polypeptide
notes: Saccharomyces cerevisiae homoisocitrate dehydrogenase R143K mutant
reaction rate relative to ScHIDH-R143H ([7]; 800 μM NADH): 83.0±0.03%
reaction rate relative to ScHIDH-R143H ([7]; standard conditions of 100 μM NADH): 3.6±0.3%
Km [8]: 1.1 mM
Km [9]: 9.4 mM
Vmax [9]: 0.011 µmol/min/mg
Enantiomeric Excess [1]: > 92%

B4: ScHIDH-R143C: Saccharomyces cerevisiae homoisocitrate dehydrogenase R143C mutant (protein)
chain: MFRSVATRLSACRGLASNAARKSLTIGLIPGDGIGKEVIPAGKQVLENLNSKHGLSFNFIDLYAGFQTFQETGKALPDETVKVLKEQCQGALFGAVQSPTTKVEGYSSPIVALRREMGLFANVRPVKSVEGEKGKPIDMVIVCENTEDLYIKIEKTYIDKATGTRVADATKRISEIATRRIATIALDIALKRLQTRGQATLTVTHKSNVLSQSDGLFREICKEVYESNKDKYGQIKYNEQIVDSMVYRLFREPQCFDVIVAPNLYGDILSDGAAALVGSLGVVPSANVGPEIVIGEPCHGSAPDIAGKGIANPIATIRSTALMLEFLGHNEAAQDIYKAVDANLREGSIKTPDLGGKASTQQVVDDVLSRL
modifications: ScHIDH R143C polypeptide
notes: Saccharomyces cerevisiae homoisocitrate dehydrogenase R143C mutant
2-hydroxyadipate dehydrogenase activity in crude bacterial lysates ([7]; 100 μM NADH substrate): did not demonstrate 2-hydroxyadipate dehydrogenase activity
Km [8]: 0.32 mM
Km [9]: 11 mM
Vmax [9]: 0.065 µmol/min/mg
maximal turnover compared with other ScHIDH mutants ([9]; in vitro data): highest maximal turnover of any ScHIDH mutant assayed
Enantiomeric Excess [1]: > 99.2%
